Data as given in the RNAGym collection of RNA variant scans (doi:10.1073/pnas.2313332121).

B1: TPR t1 (parent)
chain: GACCAAUCUGCCCUCAGAGCUCGAGAACAUCUUCGGAUGCAGAGGAGGCAGGCUUCGGUGGCGCGAUAGCGCCAACGUCCUCAACCUCCAAUGCAUCCCACCACAUGAUGAUGCCUGAAGAGCCUUGGUUUUUUG

Variants of: B1
Experiment: polymerase ribozyme fitness, log enrichment relative to wild type (log ratio); higher = more active; in vitro selection for triplet polymerase activity
How it was run: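 Both subunits of a heterodimeric triplet polymerase ribozyme were given their own mutant library, built by PCR and transcribed. Each library was annealed with a biotinylated primer, the partner subunit and triplets, incubated frozen at −7 °C, and its extended constructs gel-excised, captured on streptavidin beads and amplified by RT-PCR, all in one round done in triplicate. Fitness is the logarithm of genotype enrichment relative to wild-type enrichment, with replicates averaged by inverse-variance weighting. That logarithm is base 2, and Illumina-sequenced genotypes needed ≥10 input reads and ≥1 read per output.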

Variant | polymerase ribozyme fitness (log ratio)
GACCAAUCUGCCCUCAGAGCUCGAGAACAUCUUCGGAAGCAGUGGAGGCAGGUUUCGGUGGCGCGAUAGCGCCAACGUCCUCAACCUCCAAUGCAUCCCACCACAUGAUGACGCCUGAAGAGCCUUGGUUUUUUC [U38A A43U C53U U112C G135C] | -0.362
GACCAAUCUGCCCUCAGAGCUCGAGAACAUCUUCGGUUGCAGAGGAGGCAGUCUUCGGUGGCGCGAUAGCGCCAACGUCCUCAACCUCCAAUGCAUCCCACCACAUGAUGAUGCCUGAAGAGCCUUGGUUUUUUG [A37U G52U] | -1.37
GACCAAUCUGCCCUCAGAGCUCGAGAACAUCUUCGGUUGCAGAGGAGUCAGGCUUCGGUAGCGCGAUAGCGCCAACGUCCUGAACCUCCAAUGCAUCCCACCACAUGAUGAUGCCUGAAGUGCCUUGGUUUUUUG [A37U G48U G60A C82G A121U] | 1.39
GACCAAUCUGCCCUCAGAGCUCGAGAACAUCUUCGGAAGCAGAGGAGGCAGGCUUCGGUGGCGCGAUAGCGCUAACGUCCUCAACCUCCAAUGCAUCCCACCACAUGAUGAUGACUGAAGUGCCUUGGUUUUUUG [U38A C73U C114A A121U] | -1.65
GACCAAUCUGCCCUCAGAGCUCGAGAACAUCUUCGGAAGCAGAGGAGGCAGGCUUCGGUGGCGCGAUAGCGCCAACGUCCUCAACGUCCAAUGCAUCCCACCACAUGAUGAUGCCUGUAGAGCCUUGGUUUUUUG [U38A C86G A118U] | -1.76
GACCAAUCUGCCCUCAGAGCUCGAGAACAUCUUCGGAAGCAGAGGAGCCAGGCUUCGGUGGCCCGAUAGCGCCAACGUCCUCAAUCUCCAAUGCAUCCCACCACAUGAUAAUGCCUGAAGAGCCUUGGUUUUUUG [U38A G48C G63C C85U G110A] | -5.19
GACCAAUCUGCCCUCAGAGCUCGAGAACAUCUUCGGAAGCAGAGGAGGUAGGCUUCGGUGGCGCGAUAGCGCCAACGUCCUCAACCUUCAAUGCAUCCCACCACAUGAUGAUGCCUGAAGAGCCUUGGUUUUUUG [U38A C49U C88U] | -1.59
GACCAAUCUGCCCUCAGAGCUCGAGAACAUCUUCGGUUGCAGAGGAGGCAGGCUUCGGUGGCGCGAUAGCGCCAACGUCCUCAACCUCCAAUGCAUCCCACCACACGAUGAUGCCUGAGGAGCCUUGGUUUUUUG [A37U U106C A119G] | 0.31
GACCAAUCUGCCCUCAGAGCUCGAGAACAUCUUCGGAAGCAGAGUAGGCAGGCUUCUGUGGCGCGAUAGCGCCAACGUCCUCAACCUCCAAUGCAUCCCACCACAUGAUGAUGCCUGAAGAGCCUUGGUUUUUUG [U38A G45U G57U] | -2.52
GACCAAUCUGCCCUCAGAGCUCGAGAACAUCUUCGGUUGCAGAGGAGGCAGGCUUCGGUGGCGCGAUAGCGCCAACGUCCUCAACCUCCAAUGCAUCCCACCACAUGAUGAUGCCUGAACAGCCUUGGUUUUUUG [A37U G120C] | -0.129
GACCAAUCUGCCCUCAGAGCUCGAGAACAUCUUCGGUUGCAGAGGAGGCAGGCUUCCGUGGCGCGAUAGCGCCAACGUCCUCAAUCUCCAAUGCAUCCCACCACAUGAUGAUGCCUGAAGAGCCAUGGUUUUUUG [A37U G57C C85U U125A] | -1.95
GACCAAUCUGCCCUCAGAGCUCGAGAACAUCUUCGGAAGCAGAUGAGGCAGUCUUCGGUGGCGCGAUAGCGGCAACGUCCUCAACCUCCAAUGCAUCCCACCACAUGAUGAUGCCUGAAGAGCCUUGGUUUUUUG [U38A G44U G52U C72G] | -4.73
GACCAAUCUGCCCUCAGAGCUCGAGAACAUCUUCGGUUGCAGAGGAGGCAGGCUUCGGUGGCGCGAUAGCGCCAACUUCCUCAACCUCCAAUGCAUCCCACCACAUGAUGAUGCCUGAAGAGCCUUGGUUUUUUG [A37U G77U] | -0.679
GACCAAUCUGCCCUCAGAGCUCGAGAACAUCUUCGGUUGCAGAGGAGGCAGGCUUCGGUGGCGCGAUAGCACCAACGUCCUCAACCUCCAAUGCAUCCCACCACAUGAUGAUGCCUGAAGAGCCUUGGUUUUUUG [A37U G71A] | -1.12
GACCAAUCUGCCCUCAGAGCUCGAGAACAUCUUCGGUUGCAGAGGAGGCAGCCUUCGGUGGCGCGAUAGCGCCAACGUCCUCAACCUCCAAUGCAUCCCACCACAUGAUGAUGCCUGAACAGCCUUGGUUUUUUG [A37U G52C G120C] | 0.23
GACCAAUCUGCCCUCAGAGCUCGAGAACAUCUUCGGUUGCAGAGGAGGCACGCUUCGGUGGCGCGAUAGCGCCAACGUCCUCAACCUACAAUGCAUCCCACCACAUGAUGAUGCCUGAAGAGCCUUGGUUUUUUG [A37U G51C C88A] | -5.1
GACCAAUCUGCCCUCAGAGCUCGAGAACAUCUUCGGUUGCAGAGGAGGCAGGCUUCGGUAGCGCGAUAGCGCCAACGUCCUCAACCUCCAAUCCAUCCCACCACAUGAUGACGCGUGAAGAUCCUUGGUAUUUUG [A37U G60A G93C U112C C115G G122U U130A] | -6.13
GACCAAUCUGCCCUCAGAGCUCGAGAACAUCUUCGGUUGCAGAGGAGUCAGGCUACGGUGGCGCGAUAGCGCCAACGUCCUCAACCUCCAAUGCAUCCCACCACAUGAUGAUGCCUGAAGAGCCUUGGUUUUUUG [A37U G48U U55A] | -1.56
GACCAAUCUGCCCUCAGAGCUCGAGAACAUCUUCGGUUGCAGAGGAGGCAGGCUUCGGCGGCGCGAUAGUGCCAACGUCCUCAACCUCCAAUGCAUCCCACCACAUGAUGAUGCCUGAAGAGCCUUGGUUUUUUG [A37U U59C C70U] | -1.46
GACCAAUCUGCCCUCAGAGCUCGAGAACAUCUUCGGUUGCAGAGGAGGCAGGCAUCGGUGGCGCGAUAGCGCCAACGUCCUCAACCUCCAAUGCAUCCCACCACAUGAUGAUGCCUGAAGAGUGUUGGUUUUUUG [A37U U54A C123U C124G] | 1.44
GACCAAUCUGCCCUCAGAGCUCGAGAACAUCUUCGGAAGCAUAGGAGGCAGGCUUCGGUGGCCCGAUAGCGCCAACGUUCUCAACCUCCAAUGCAUCCCACCACAUGAUGAUGCCUGAAGAGCCUUGGUUUUUUG [U38A G42U G63C C79U] | -3.1
